From patent US20250270343A1 (Alector, published 2025)

Target: T1, full-length untagged human GPNMB expressed on cells (human, UniProt Q14956 23-572)
T1 construct: also used here for GPNMB on human monocyte-derived macrophages in the functional assays; also called huGPNMB; Freestyle293-huGPNMB+
T1 sequence: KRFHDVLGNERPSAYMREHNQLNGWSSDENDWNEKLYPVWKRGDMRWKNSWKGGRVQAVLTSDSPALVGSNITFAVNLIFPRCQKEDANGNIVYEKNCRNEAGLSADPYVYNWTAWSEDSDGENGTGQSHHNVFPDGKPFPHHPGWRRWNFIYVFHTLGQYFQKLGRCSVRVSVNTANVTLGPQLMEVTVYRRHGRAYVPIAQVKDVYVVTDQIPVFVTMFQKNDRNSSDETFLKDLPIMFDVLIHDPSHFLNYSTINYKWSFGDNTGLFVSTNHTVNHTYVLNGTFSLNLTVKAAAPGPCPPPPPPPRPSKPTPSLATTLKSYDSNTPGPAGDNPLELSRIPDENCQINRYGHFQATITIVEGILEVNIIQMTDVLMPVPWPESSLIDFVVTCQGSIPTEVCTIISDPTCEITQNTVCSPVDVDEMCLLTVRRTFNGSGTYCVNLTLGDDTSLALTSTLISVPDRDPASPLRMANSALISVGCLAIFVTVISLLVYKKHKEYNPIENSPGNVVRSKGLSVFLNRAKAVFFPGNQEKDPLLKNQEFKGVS
Test: FACS, FS293-huGPNMB+ cells; single-point FACS staining of Freestyle293-huGPNMB+ cells; weak signal, 1.5-fold over background

MFI fold over background: 1.5 fold
B1: anti-GPNMB antibody GPN-43 (antibody, human IgG1, V domains shown)
VH: EVQLQQSGPELVKPGASVKISCKASGYTFTDYYMNWVRQSHGKSLEWIGDINPYHGGSTYNQKIKVKATLTVDKSSSTAYMELRSLTSEDSAVYYCARNWPYFDYWGQGTTLTVSS
VL: DIQMTQSPASLSASVGETVTITCRASENIYSFLVWYQQKQGKSPQLLVYNAKTLAEGVPSRFSGSGSGTQFSLKISSLQPEDFGSYYCQHHFGTPPYTFGGGTKLEIK
notes: chimeric
